According to patent US20130336885A1 (Genentech, published 2013):

How the values were obtained:
[1] = molecular target: T1, human LgR5 ECD (amino acids 22-557 fused to His-Fc expressed in a baculovirus system, or amino acids 22-558 … (human, UniProt O75473 22-557)); experiment: BIAcore-3000 SPR, IgG captured on goat anti-human Fc, human LgR5 ECD-Fc injected, 25 C, 1:1 Langmuir model
T1 construct: not shown: C-terminal His-tagged Fc
T1 sequence: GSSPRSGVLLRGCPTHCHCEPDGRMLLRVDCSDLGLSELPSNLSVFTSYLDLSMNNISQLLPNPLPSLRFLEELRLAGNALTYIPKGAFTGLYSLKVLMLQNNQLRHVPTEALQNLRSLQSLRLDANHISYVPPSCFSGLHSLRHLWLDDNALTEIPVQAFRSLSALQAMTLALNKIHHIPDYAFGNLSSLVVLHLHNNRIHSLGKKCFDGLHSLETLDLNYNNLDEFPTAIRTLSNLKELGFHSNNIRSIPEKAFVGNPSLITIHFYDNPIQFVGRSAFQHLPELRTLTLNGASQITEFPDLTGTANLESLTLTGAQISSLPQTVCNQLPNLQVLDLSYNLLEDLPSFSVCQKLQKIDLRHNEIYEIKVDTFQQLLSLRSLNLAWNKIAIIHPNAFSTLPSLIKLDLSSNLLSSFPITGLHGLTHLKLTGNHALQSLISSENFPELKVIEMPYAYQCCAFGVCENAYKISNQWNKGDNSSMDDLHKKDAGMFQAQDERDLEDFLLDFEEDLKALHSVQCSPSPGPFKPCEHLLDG
Method: The affinity of each 8E11 IgG variant for human LgR5 was determined by surface plasmon resonance using a BIAcore™-3000. BIAcore™ research grade CMS chips were activated with 1-ethyl-3-(3-dimethylaminopropyl) carbodiimide (EDC) and N-hydroxysuccinimide (NHS) reagents according to the supplier's instructions. Goat anti-human Fc IgGs were coupled to the chips to achieve approximately 10,000 response units (RU) in each flow cell. Unreacted coupling groups were blocked with 1M ethanolamine. For kinetics measurements, anti-LGR5 antibodies were captured to achieve approximately 300 RU. Two-fold serial dilutions of human LgR5ECD (amino acids 22-557 fused to His-Fc expressed in a baculovirus system, or amino acids 22-558 fused to Fc expressed from CHO cells; 125 nM to 0.49 nM) were injected in HBS-P buffer (0.01M HEPES pH7.4, 0.15M NaCl, 0.005% surfactant P20) at 25° C. with a flow rate of 30 μl/min. Association rates (kₒₙ) and dissociation rates (koff) were calculated using a 1:1 Langmuir binding model (BIAcore™ Evaluation Software version 3.2). The equilibrium dissociation constant (Kd) was calculated as the ratio koff/kₒₙ.

[2] = molecular target: T2, gD epitope-tagged rat LgR5 expressed on stably transfected 293 cells (rat, UniProt D4AC13 22-907); experiment: FACS on 293 cells stably transfected with gD epitope-tagged LgR5, 10 ug/ml antibody, R-Phycoerythrin goat anti-human detection
T2 construct: also called gD-tagged rat LgR5
T2 sequence: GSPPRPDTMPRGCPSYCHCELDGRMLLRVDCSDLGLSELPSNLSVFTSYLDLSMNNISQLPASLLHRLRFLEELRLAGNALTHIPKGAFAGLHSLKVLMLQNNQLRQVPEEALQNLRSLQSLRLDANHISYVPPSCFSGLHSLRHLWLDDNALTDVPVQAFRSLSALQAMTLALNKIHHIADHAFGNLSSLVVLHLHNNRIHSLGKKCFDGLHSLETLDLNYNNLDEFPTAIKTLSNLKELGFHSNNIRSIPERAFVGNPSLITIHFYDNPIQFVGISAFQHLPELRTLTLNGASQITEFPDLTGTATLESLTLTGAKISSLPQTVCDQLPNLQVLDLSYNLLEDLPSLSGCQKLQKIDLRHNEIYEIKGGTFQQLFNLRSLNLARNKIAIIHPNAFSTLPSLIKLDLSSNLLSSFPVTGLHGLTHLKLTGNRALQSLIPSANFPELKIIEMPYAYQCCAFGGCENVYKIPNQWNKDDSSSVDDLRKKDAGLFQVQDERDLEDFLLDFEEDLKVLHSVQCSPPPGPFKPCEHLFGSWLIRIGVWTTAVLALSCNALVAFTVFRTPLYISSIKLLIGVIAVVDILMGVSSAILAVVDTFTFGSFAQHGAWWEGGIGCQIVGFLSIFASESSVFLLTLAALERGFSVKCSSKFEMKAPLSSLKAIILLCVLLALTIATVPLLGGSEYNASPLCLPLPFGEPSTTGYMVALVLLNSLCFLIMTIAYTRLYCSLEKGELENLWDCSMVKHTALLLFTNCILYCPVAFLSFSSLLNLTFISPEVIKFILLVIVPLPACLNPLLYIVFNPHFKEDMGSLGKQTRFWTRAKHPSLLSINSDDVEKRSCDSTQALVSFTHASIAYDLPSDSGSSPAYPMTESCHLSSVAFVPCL
Method: Monoclonal antibodies were tested to determine if they cross-react with LgR5 from species other than human. […] Residues that are identical among all four species are indicated by asterisks (*). […] YW353 antibody binds human and cynomolgus monkey LgR5, but not rat or mouse LgR5. Ch8E11 and hu8E11.v2 antibodies bind all four species of LgR5, although binding to rat LgR5 is not as strong as binding to human, cynomolgus monkey, or mouse LgR5. 2H6 antibody binds to human and mouse LgR5, and was not tested for binding to cynomolgus monkey or rat LgR5.

B1: humanized monoclonal antibody 8E11.v2 (antibody, human IgG1, kappa, V domains shown)
VH: EVQLVQSGAEVKKPGASVKVSCKASGYTFSAYWIEWVRQAPGQGLEWIGEILPGSDSTDYNEKFKVRATFTSDTSTSTVYLELSSLRSEDTAVYYCARGGHYGSLDYWGQGTLVTVSS
VL: DIVMTQSPDSLAVSLGERATINCRASESVDNYGNSFMHWYQQKPGQPPKLLIYLASNLESGVPDRFSGSGSGTDFTLTISSLQAEDVAVYYCQQNYEDPFTFGQGTKVEIKR
notes: It was assessed as an IgG; also called hu8E11.v2; hu8E11v2
B1 was tested, and the Kd [1] was 3.1 nM, the koff [1] was 0.000853 s⁻¹ and the kon [1] was 279000 M⁻¹ s⁻¹.

B2: chimeric monoclonal antibody 8E11 (antibody, human IgG1, V domains shown)
VH: QVQLQQSGTELMKPGASVKISCKATGYTFSAYWIEWIKQRPGHGLEWIGEILPGSDSTDYNEKFKVKATFSSDTSSNTVYIQLNSLTYEDSAVYYCARGGHYGSLDYWGQGTTLKVSS
VL: NIVLTQSPASLAVSLGQRATISCRASESVDNYGNSFMHWYQQKPGQPPKLLIYLASNLESGVPARFSGSGSRTDFTLTIDPVEADDAATYYCQQNYEDPFTFGSGTKVEIKR
notes: also called ch8E11; chimeric 8E11
B2 was tested, and the Kd [1] was 3 nM, the koff [1] was 0.00064 s⁻¹ and the kon [1] was 210000 M⁻¹ s⁻¹. B2: binds [2].
